The text below walks through data of doi:10.1101/2020.01.27.920827 (bioRxiv, 2020).

Series [1] deals with the molecule itself. In words: SDS-resistant oligomer bands on SDS-PAGE after liposome co-sedimentation.
The series “FRET or BRET” deals with the molecule itself. Description: FRET or BRET. A general note: Bioluminescence resonance energy transfer reports proximity on the nanometre scale.

Changes are numbered by the printed parent chain. Names and notes keep the numbering of the source.

B1: epsin1 ENTH domain, wild type (Rat Epsin1 WT ENTH 1-164) (domain or fragment)
chain: MSTSSLRRQMKNIVHNYSEAEIKVREATSNDPWGPSSSLMSEIADLTYNVVAFSEIMSMIWKRLNDHGKNWRHVYKAMTLMEYLIKTGSERVSQQCKENMYAVQTLKDFQYVDRDGKDQGVNVREKAKQLVALLRDEDRLREERAHALKTKEKLAQTATASSAA
With B1, the binding result in series [1] is recorded as “binds”.

B2: ENTH WT (C96A A155C) domain, labelled with Atto488 maleimide or Atto532 maleimide (domain or fragment)
chain: B1 chain with C96A, A155C
modifications: Atto488 maleimide (donor population) or Atto532 maleimide (acceptor population), by cysteine modification
As for B2, the binding result in the series “FRET or BRET” is recorded as “binds”.
